We go through 9 substances from article PMC12990809.

Experiment in all cases: pulldown
The target of series [1] is T1, spo5 (Schizosaccharomyces pombe) (UniProt Q2L4W6).
T1 sequence: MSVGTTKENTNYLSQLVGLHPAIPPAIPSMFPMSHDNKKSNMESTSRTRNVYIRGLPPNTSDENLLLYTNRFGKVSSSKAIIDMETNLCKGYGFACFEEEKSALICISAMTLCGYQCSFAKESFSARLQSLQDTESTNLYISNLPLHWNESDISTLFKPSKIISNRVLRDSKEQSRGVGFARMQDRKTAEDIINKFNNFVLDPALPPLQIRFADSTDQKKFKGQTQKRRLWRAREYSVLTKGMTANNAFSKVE
To be noted: 20 nM protein, 1.5 uM RNA pool; 20 mM HEPES pH 7.8, 70 mM KCl, 10 mM NaCl, 10% glycerol, 2 mM DTT, 0.1 ug/uL BSA; 30 min, 4 C.

Another series deals with T2, rbm38 (Danio rerio) (UniProt A0A8M1NF18).
T2 sequence: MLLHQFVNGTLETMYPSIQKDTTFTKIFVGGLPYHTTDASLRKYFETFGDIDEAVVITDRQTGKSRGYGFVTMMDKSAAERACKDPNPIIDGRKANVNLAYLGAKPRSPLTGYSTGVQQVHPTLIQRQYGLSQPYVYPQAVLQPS
The conditions noted are these: 20 nM protein, 1.5 uM RNA pool; 20 mM HEPES pH 7.8, 70 mM KCl, 10 mM NaCl, 10% glycerol, 2 mM DTT, 0.1 ug/uL BSA; 30 min, 4 C (protocol of this paper; not …); cited from earlier work.

For series [2], the target named is T3, hnrnpr (Xenopus tropicalis) (UniProt A0A8J0QQ94).
T3 sequence: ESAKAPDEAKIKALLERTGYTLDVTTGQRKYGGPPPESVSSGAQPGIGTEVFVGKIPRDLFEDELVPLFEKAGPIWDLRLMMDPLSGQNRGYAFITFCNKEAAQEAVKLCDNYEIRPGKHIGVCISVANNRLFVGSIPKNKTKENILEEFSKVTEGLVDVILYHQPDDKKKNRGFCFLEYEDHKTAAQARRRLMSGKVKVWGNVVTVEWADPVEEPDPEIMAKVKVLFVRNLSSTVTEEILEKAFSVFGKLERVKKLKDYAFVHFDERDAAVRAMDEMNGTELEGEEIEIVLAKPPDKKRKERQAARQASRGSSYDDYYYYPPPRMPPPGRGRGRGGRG
The conditions noted are these: 20 nM protein, 1.5 uM RNA pool; 20 mM HEPES pH 7.8, 70 mM KCl, 10 mM NaCl, 10% glycerol, 2 mM DTT, 0.1 ug/uL BSA; 30 min, 4 C (protocol of this paper; not …); cited from earlier work.

The target in series [3] is T4, rbm47 (Xenopus tropicalis) (UniProt A0A8J0QCA8).
T4 sequence: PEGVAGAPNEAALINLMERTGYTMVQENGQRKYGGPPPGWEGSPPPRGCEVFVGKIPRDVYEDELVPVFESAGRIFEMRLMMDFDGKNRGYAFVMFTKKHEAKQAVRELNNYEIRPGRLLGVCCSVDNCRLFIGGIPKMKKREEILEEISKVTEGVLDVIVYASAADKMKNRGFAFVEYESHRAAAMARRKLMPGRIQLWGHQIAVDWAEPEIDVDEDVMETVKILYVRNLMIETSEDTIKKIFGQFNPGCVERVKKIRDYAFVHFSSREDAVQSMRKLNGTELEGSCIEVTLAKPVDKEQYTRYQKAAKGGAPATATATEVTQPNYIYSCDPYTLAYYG
To be noted: 20 nM protein, 1.5 uM RNA pool; 20 mM HEPES pH 7.8, 70 mM KCl, 10 mM NaCl, 10% glycerol, 2 mM DTT, 0.1 ug/uL BSA; 30 min, 4 C (protocol of this paper; not …); cited from earlier work.

For another series, the target named is T5, G3BP2 (Homo sapiens) (UniProt Q9UN86).
T5 sequence: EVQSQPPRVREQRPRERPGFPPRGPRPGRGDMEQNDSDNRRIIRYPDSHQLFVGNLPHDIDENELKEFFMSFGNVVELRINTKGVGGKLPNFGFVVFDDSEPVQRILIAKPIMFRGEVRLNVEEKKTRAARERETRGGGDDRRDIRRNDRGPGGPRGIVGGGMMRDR
The conditions noted are these: 20 nM protein, 1.5 uM RNA pool; 20 mM HEPES pH 7.8, 70 mM KCl, 10 mM NaCl, 10% glycerol, 2 mM DTT, 0.1 ug/uL BSA; 30 min, 4 C (protocol of this paper; not …); cited from earlier work.

Series [4] addresses T6, PK03611.1 N266D (Cannabis sativa) (UniProt A0A7J6FG33).
T6 sequence: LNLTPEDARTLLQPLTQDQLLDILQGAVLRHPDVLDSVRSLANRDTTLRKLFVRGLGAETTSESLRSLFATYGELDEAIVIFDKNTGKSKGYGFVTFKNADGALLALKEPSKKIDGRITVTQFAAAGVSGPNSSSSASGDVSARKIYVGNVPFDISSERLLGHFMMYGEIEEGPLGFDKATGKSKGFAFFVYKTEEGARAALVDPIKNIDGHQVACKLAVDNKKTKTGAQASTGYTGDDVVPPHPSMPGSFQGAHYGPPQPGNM
To be noted: 20 nM protein, 1.5 uM RNA pool; 20 mM HEPES pH 7.8, 70 mM KCl, 10 mM NaCl, 10% glycerol, 2 mM DTT, 0.1 ug/uL BSA; 30 min, 4 C.

A further series deals with T7, RBM47 (Gallus gallus) (UniProt A0A8V0YMK0).
T7 sequence: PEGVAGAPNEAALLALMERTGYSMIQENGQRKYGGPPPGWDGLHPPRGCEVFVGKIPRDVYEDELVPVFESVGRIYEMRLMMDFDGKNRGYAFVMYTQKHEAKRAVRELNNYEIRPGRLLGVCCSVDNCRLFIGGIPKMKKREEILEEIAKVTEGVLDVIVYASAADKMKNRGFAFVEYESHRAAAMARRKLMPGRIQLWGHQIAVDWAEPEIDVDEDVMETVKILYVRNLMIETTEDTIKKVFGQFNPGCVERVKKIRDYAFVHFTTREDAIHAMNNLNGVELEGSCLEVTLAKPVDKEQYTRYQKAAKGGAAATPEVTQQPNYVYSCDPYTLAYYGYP
The conditions noted are these: 20 nM protein, 1.5 uM RNA pool; 20 mM HEPES pH 7.8, 70 mM KCl, 10 mM NaCl, 10% glycerol, 2 mM DTT, 0.1 ug/uL BSA; 30 min, 4 C (protocol of this paper; not …); cited from earlier work.

The target in a further series is T8, A1CF (Gallus gallus) (UniProt A0A8V0ZPX5).
T8 sequence: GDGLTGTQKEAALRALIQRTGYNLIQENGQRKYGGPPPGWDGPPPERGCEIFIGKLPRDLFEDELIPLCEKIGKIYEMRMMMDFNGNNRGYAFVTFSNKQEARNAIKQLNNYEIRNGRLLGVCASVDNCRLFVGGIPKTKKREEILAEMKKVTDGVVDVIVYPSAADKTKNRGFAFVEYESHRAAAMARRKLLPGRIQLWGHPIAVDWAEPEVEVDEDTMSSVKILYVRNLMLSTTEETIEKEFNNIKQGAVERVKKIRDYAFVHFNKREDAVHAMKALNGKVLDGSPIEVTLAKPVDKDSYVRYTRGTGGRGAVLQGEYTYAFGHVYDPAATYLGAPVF
To be noted: 20 nM protein, 1.5 uM RNA pool; 20 mM HEPES pH 7.8, 70 mM KCl, 10 mM NaCl, 10% glycerol, 2 mM DTT, 0.1 ug/uL BSA; 30 min, 4 C (protocol of this paper; not …); cited from earlier work.

In series [5] the target is T9, rbm24a (Tetraodon nigroviridis) (UniProt H3CUV7).
T9 sequence: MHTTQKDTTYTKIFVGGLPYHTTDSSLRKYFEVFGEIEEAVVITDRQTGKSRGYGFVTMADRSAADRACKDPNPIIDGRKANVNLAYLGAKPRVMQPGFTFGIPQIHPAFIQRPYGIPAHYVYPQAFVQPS
The conditions noted are these: 20 nM protein, 1.5 uM RNA pool; 20 mM HEPES pH 7.8, 70 mM KCl, 10 mM NaCl, 10% glycerol, 2 mM DTT, 0.1 ug/uL BSA; 30 min, 4 C (protocol of this paper; not …); cited from earlier work.

Turning to AUAUUA [RNAcompete motif RNCMPT00311], the binding signal (z-score (mean of top ten 7-mers)) in series [1] amounted to 7.81.

With GUGUGUG [RNAcompete motif RNCMPT00283], the binding signal (z-score (mean of top ten 7-mers)) with rbm38 (Danio rerio) was 9.92.

Turning to AAAUU [RNAcompete motif RNCMPT00289], the binding signal (z-score (mean of top ten 7-mers)) in [2] is 8.84.

Turning to GAUGAUU [RNAcompete motif RNCMPT00280], the binding signal (z-score (mean of top ten 7-mers)) in series [3] is 7.8.

For the substance AGGAUNA [RNAcompete motif RNCMPT00021], the binding signal (z-score (mean of top ten 7-mers)) with G3BP2 (Homo sapiens) was 8.75.

Turning to UUAUGUG [RNAcompete motif RNCMPT00326], the binding signal (z-score (mean of top ten 7-mers)) in [4] was determined as 8.16.

For the substance GAUGAU [RNAcompete motif RNCMPT00279], the binding signal (z-score (mean of top ten 7-mers)) with RBM47 (Gallus gallus) was 8.4.

UAAUUG [RNAcompete motif RNCMPT00291]: the binding signal (z-score (mean of top ten 7-mers)) with A1CF (Gallus gallus) was 12.

As to UGUGUG [RNAcompete motif RNCMPT00285], the binding signal (z-score (mean of top ten 7-mers)) in [5] was 10.2.
